Data published in paper PMC8031663, “Caveolin‐1‐driven membrane remodelling regulates hnRNPK‐mediated exosomal microRNA sorting in cancer”.

Target: hnRNPK (6xHis-GFP fusion) (Homo sapiens, UniProt P61978 1-463)
Experiment: MST; Kd plotted in Fig 4B, value not in text; MST: 50 mM HEPES, 0.3 M KCl, pH 7.4, 40 nM RNA, protein dilution from 150 uM, temperature not stated; pull-down: 10 mM Tris-Cl pH 7.5, 20 mM KCl, 1.5 mM MgCl2
Conditions: protein: recombinant; tags: N-terminal 6xHis-GFP, TEV site; label: 5' 6-FAM; single strand

UCAGUGCACUACAGAACUUUGU (ssRNA) [motif_mimic (miR-148a-3p)]: binds.
